{"source": "paper PMC7968844", "key": {"[1]": {"test": "FLAG pulldown, MS peptide reads", "conditions": "glycan lost; control: MCF7-WT cells"}, "[2]": {"test": "CHX chase, Western blot, endogenous ERα", "conditions": "glycan lost; control: MCF7-WT cells, empty vector"}, "[3]": {"test": "Western blot of ERα after GREB1 reconstitution", "conditions": "glycan gained; control: GREB1-KO cells + Vec"}, "[4]": {"test": "CHX chase, Western blot, GREB1-KO cells", "conditions": "glycan lost; control: ERα-WT in GREB1-KO cells"}, "[5]": {"test": "CHX chase, Western blot, MCF7-WT cells", "conditions": "glycan lost; control: ERα-WT in MCF7-WT cells"}}}
{"protein": "ERα (estrogen receptor α): GREB1-KO (protein) parent chain: MTMTLHTKASGMALLHQIQGNELEPLNRPQLKIPLERPLGEVYLDSSKPAVYNYPEGAAYEFNAAAAANAQVYGQTGLPYGPGSEAAAFGSNGLGGFPPLNSVSPSPLMLLHPPPQLSPFLQPHGQQVPYYLENEPSGYTVREAGPPAFYRPNSDNRRQGGRERLASTNDKGSMAMESAKETRYCAVCNDYASGYHYGVWSCEGCKAFFKRSIQGHNDYMCPATNQCTIDKNRRKSCQACRLRKCYEVGMMKGGIRKDRRGGRMLKHKRQRDDGEGRGEVGSAGDMRAANLWPSPLMIKRSKKNSLALSLTADQMVSALLDAEPPILYSEYDPTRPFSEASMMGLLTNLADRELVHMINWAKRVPGFVDLTLHDQVHLLECAWLEILMIGLVWRSMEHPGKLLFAPNLLLDRNQGKCVEGMVEIFDMLLATSSRFRMMNLQGEEFVCLKSIILLNSGVYTFLSSTLKSLEEKDHIHRVLDKITDTLIHLMAKAGLTLQQQHQRLAQLLLILSHIRHMSNKGMEHLYSMKCKNVVPLYDLLLEMLDAHRLHAPTSRGGASVEETDQSHLATAGSTSSHSLQKYYITGEAEGFPATV", "values": [{"measurement": "other: ubiquitin associated with ERα", "setting": "[1]", "value": "increases"}, {"measurement": "degradation_or_half_life", "setting": "[2]", "value": "decreases"}]}
{"protein": "ERα (estrogen receptor α): GT-WT (protein) parent chain: MTMTLHTKASGMALLHQIQGNELEPLNRPQLKIPLERPLGEVYLDSSKPAVYNYPEGAAYEFNAAAAANAQVYGQTGLPYGPGSEAAAFGSNGLGGFPPLNSVSPSPLMLLHPPPQLSPFLQPHGQQVPYYLENEPSGYTVREAGPPAFYRPNSDNRRQGGRERLASTNDKGSMAMESAKETRYCAVCNDYASGYHYGVWSCEGCKAFFKRSIQGHNDYMCPATNQCTIDKNRRKSCQACRLRKCYEVGMMKGGIRKDRRGGRMLKHKRQRDDGEGRGEVGSAGDMRAANLWPSPLMIKRSKKNSLALSLTADQMVSALLDAEPPILYSEYDPTRPFSEASMMGLLTNLADRELVHMINWAKRVPGFVDLTLHDQVHLLECAWLEILMIGLVWRSMEHPGKLLFAPNLLLDRNQGKCVEGMVEIFDMLLATSSRFRMMNLQGEEFVCLKSIILLNSGVYTFLSSTLKSLEEKDHIHRVLDKITDTLIHLMAKAGLTLQQQHQRLAQLLLILSHIRHMSNKGMEHLYSMKCKNVVPLYDLLLEMLDAHRLHAPTSRGGASVEETDQSHLATAGSTSSHSLQKYYITGEAEGFPATV", "values": [{"measurement": "expression_or_secretion", "setting": "[3]", "value": "increases"}]}
{"protein": "ERα (estrogen receptor α): ERα-2M (protein) parent chain: MTMTLHTKASGMALLHQIQGNELEPLNRPQLKIPLERPLGEVYLDSSKPAVYNYPEGAAYEFNAAAAANAQVYGQTGLPYGPGSEAAAFGSNGLGGFPPLNSVSPSPLMLLHPPPQLSPFLQPHGQQVPYYLENEPSGYTVREAGPPAFYRPNSDNRRQGGRERLASTNDKGSMAMESAKETRYCAVCNDYASGYHYGVWSCEGCKAFFKRSIQGHNDYMCPATNQCTIDKNRRKSCQACRLRKCYEVGMMKGGIRKDRRGGRMLKHKRQRDDGEGRGEVGSAGDMRAANLWPSPLMIKRSKKNSLALSLTADQMVSALLDAEPPILYSEYDPTRPFSEASMMGLLTNLADRELVHMINWAKRVPGFVDLTLHDQVHLLECAWLEILMIGLVWRSMEHPGKLLFAPNLLLDRNQGKCVEGMVEIFDMLLATSSRFRMMNLQGEEFVCLKSIILLNSGVYTFLSSTLKSLEEKDHIHRVLDKITDTLIHLMAKAGLTLQQQHQRLAQLLLILSHIRHMSNKGMEHLYSMKCKNVVPLYDLLLEMLDAHRLHAPTSRGGASVEETDQSHLATAGSTSSHSLQKYYITGEAEGFPATV", "values": [{"measurement": "degradation_or_half_life", "setting": "[4]", "value": "no change"}, {"measurement": "degradation_or_half_life", "setting": "[5]", "value": "decreases"}]}
